The record followed here is paper PMC3315493.

Test [1] deals with tetherin Y6,8A (stably expressed in 293T/tetherin Y6,8A cells) (UniProt Q10589). As to the kind of experiment: co-immunoprecipitation (anti-tetherin IP, Western blot, LiCor quantitative imager). The conditions noted are these: MOI of 2, 48 h post infection. In general terms: Immunoblotting shows a protein as a band on a membrane.
Test [2] addresses Vpu of wildtype HIV-1 NL4.3 (expressed from the virus). The test is described as above. The conditions noted are these: 293T/tetherin Y6,8A cells, MOI of 2, 48 h post infection, read off a plot.

With “Vpu of wildtype HIV-1 NL4.3 (expressed from the virus) E59A; L63A; V64A”, the response (ratio Vpu/tetherin band intensity in IP) in test [1] (UBAP1 siRNA, parent: est. 1.3, read off a plot) is 0.9; in test [1] (control siRNA, parent: est. 1.6, read off a plot) it was 0.5.
Consider “human tetherin (stably expressed in 293T/tetherin cells) (from UniProt Q10589) Y6A; Y8A”, for which the response (ratio Vpu/tetherin band intensity in IP) in test [2] (UBAP1 siRNA) came out at 1.3; in test [2] (control siRNA) it was 1.6.
